This assay addresses PI3KC3 complex II (PI3KC3-C2): VPS34, VPS15, BECN1, UVRAG (human) (UniProt Q8NEB9).

Sequence of UniProt Q8NEB9 (Q8NEB9 whole entry, chain 1 of 4): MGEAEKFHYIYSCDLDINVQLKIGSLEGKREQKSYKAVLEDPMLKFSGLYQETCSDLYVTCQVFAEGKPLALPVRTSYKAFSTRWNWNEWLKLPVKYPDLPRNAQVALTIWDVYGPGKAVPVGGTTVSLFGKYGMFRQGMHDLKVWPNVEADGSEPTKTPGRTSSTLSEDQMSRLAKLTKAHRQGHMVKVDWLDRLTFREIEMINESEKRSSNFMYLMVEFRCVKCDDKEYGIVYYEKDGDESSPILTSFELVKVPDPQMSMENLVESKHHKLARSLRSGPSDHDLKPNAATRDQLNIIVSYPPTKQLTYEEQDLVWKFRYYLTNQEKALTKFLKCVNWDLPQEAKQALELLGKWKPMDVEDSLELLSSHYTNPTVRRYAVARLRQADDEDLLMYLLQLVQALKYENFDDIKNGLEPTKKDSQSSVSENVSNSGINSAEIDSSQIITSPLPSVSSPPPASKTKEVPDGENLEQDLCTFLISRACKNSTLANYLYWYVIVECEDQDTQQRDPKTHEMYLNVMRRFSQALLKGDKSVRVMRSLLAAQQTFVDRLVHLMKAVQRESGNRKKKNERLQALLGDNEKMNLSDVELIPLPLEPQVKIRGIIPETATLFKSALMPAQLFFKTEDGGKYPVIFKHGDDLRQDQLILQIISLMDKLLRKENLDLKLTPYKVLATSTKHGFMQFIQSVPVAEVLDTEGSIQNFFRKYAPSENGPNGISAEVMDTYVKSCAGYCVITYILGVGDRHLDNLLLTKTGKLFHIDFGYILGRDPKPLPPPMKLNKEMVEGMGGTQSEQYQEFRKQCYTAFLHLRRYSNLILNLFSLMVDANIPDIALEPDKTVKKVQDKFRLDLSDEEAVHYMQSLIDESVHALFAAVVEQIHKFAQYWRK
Sequence of UniProt Q8NEB9 (Q99570 whole entry, chain 2 of 4, further chain): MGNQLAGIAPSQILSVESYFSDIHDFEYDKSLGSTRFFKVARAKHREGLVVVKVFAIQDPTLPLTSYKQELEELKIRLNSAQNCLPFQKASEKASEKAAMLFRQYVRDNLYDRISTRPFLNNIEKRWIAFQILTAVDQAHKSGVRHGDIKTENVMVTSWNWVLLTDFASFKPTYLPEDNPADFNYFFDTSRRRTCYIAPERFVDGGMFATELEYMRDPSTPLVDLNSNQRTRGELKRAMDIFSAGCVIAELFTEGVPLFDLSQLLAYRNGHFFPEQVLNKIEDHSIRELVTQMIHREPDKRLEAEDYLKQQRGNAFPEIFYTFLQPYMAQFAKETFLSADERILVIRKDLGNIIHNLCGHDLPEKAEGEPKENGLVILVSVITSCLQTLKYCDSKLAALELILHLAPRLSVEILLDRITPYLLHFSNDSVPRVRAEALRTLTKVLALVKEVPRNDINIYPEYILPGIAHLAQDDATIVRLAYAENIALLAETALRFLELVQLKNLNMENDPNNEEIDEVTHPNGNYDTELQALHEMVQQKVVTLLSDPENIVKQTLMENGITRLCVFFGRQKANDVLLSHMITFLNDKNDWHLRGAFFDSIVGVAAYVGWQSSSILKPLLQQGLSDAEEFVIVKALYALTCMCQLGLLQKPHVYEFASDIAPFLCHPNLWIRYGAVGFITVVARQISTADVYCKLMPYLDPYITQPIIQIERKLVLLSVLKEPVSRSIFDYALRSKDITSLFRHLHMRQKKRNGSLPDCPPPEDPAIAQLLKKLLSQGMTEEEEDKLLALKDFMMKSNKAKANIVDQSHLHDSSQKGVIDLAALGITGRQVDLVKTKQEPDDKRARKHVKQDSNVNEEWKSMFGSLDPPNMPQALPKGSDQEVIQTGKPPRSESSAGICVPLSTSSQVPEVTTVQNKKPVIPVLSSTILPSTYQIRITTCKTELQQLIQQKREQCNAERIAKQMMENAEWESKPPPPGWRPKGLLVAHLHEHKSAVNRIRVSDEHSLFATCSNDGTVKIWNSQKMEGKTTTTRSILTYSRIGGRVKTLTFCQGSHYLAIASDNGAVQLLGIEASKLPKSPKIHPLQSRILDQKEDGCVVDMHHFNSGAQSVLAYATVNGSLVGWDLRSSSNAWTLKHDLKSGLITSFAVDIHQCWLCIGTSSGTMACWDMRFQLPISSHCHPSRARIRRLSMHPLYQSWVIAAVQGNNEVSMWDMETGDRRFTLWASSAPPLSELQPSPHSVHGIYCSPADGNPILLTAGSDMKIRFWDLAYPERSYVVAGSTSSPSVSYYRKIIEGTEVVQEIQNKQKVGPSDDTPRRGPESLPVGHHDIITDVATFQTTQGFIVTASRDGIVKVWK
Sequence of UniProt Q8NEB9 (Q14457 whole entry, chain 3 of 4, further chain): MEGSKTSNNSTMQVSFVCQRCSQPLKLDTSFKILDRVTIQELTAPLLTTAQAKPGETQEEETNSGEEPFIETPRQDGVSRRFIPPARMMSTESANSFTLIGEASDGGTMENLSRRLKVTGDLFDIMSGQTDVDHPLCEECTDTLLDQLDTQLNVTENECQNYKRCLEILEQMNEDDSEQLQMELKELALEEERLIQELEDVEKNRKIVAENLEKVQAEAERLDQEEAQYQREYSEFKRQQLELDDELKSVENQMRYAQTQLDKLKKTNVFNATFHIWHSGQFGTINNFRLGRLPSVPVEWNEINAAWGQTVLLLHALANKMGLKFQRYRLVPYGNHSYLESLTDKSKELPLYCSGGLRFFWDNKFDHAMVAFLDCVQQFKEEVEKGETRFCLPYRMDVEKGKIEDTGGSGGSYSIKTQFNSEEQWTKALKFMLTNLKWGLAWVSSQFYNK
Sequence of UniProt Q8NEB9 (Q9P2Y5 whole entry, chain 4 of 4, further chain): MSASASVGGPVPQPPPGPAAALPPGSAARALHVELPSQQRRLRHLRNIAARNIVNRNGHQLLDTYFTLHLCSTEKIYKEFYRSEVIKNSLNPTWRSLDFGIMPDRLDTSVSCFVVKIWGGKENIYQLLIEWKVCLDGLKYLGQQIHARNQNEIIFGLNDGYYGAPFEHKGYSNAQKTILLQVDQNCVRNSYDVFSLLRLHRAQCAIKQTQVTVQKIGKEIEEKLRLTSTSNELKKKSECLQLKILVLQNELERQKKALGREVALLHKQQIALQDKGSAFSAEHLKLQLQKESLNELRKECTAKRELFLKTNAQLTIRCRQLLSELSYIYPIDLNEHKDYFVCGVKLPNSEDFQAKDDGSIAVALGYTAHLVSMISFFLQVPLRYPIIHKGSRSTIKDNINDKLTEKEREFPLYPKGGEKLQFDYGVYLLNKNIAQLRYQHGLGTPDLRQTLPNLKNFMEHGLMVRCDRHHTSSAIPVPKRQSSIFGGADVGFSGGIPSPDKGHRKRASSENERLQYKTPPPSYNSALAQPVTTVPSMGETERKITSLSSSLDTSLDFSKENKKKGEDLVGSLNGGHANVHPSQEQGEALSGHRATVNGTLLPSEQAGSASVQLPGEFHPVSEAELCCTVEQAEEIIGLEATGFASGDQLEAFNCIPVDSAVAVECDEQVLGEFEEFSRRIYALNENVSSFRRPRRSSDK

Take “MBP tagged Rubicon MR (middle region) (from UniProt Q92622 1-972) (domain or fragment)”: the PI3KC3-C2 lipid kinase activity on SUVs (ADP-Glo), complexes at 12.5 nM worked out at 2 fold.

As to “MBP tagged Rubicon PIKBD (PI3KC3-C2 binding domain) (from UniProt Q92622 1-972) (domain or fragment)”, the PI3KC3-C2 lipid kinase activity on SUVs (ADP-Glo), complexes at 12.5 nM came out at 2 fold.

Values taken from publication PMC6450660.
